Data taken from patent publication US12441790B2, “Binding proteins to the human thrombin receptor, PAR4” (MONASH UNIVERSITY, priority 2017, dated 2025).
Entries after “also recorded” stand apart in the source; their conditions may differ.

Tests used:
hPAR4 peptide = molecular target: T1, hPAR4 peptide (Homo sapiens, UniProt Q96RI0); assay: ELISA of purified mAbs on hPAR4 peptide; assay type: binding; conditions: dilutions of purified mAbs
T1 construct: host or cells: synthetic peptide
Description: The kinetics of the binding interaction between the mAbs and hPAR4 was measured using Surface Plasmon Resonance (SPR; Biacore) by two different methods: 1. Anti-mouse Fc mAb capture method and 2. Streptavidin (SA) chip to capture biotinylated peptide. The ka(on) rate and kd(off) rates and KD were measured and fitted to a Langmuir model using the Biacore evaluation software.
The experiment was completed with purified mAbs diluted in PBS instead of hybridoma supernatants.
The reactivity of seven purified anti-hPAR4 mAbs was analysed by ELISA (see Table 4).

[1] = system: hPAR4 peptides 1-9, 8-15 and 11-20; assay: Epitope mapping ELISA with overlapping hPAR4 peptides; assay type: binding, human; conditions: peptides coated at 10 ug/ml
Description: Briefly the peptides were coated onto a Nunc maxisorp ELISA plate at 10 ug/ml overnight in coating buffer (0.1M sodium carbonate pH8.0). Purified mAbs diluted in PBS were used in place of supernatant.

human isolated platelets = assay: Platelet phosphatidylserine exposure (annexin V binding); assay type: cell-based; conditions: pre-treatment 5 min; regardless of donor genotype
Description: Platelet surface phosphatidylserine (PS) exposure was determined by measuring annexin V binding. Human isolated platelets (5×10^7/ml) were pre-treated with 5A.RC3 (5 mins) at the concentrations indicated and were incubated with Alexa Fluor 488-conjugated annexin-V (1:100) prior to stimulation with thrombin. After stimulation, platelets were resuspended in modified Tyrode's buffer for flow cytometry analysis (FACSCalibur, BD Biosciences).
Pro-coagulant activity in isolated human platelets was examined by measuring phosphatidylserine (PS) exposure in response to stimulation with PAR4-AP or thrombin (1 U/ml) The percentage of annexin V positive cells was measured. The platelets were pre-incubated with 5A.RC3 for 5 mins. […] The 10 min (final data point) is shown for simplicity.

native PAR4 peptide = molecular target: T2, native PAR4 peptide (Homo sapiens, UniProt Q96RI0); assay: ELISA screening of hybridoma supernatants, native vs KLH-linked PAR4 peptide; assay type: binding; conditions: first screening; second sub-clone
T2 construct: host or cells: synthetic peptide
Description: (§1) 96-well ELISA plates were coated with 50 μl of antigen diluted to a concentration of 4 μg/ml in coating buffer (0.1M Sodium Hydrogen Carbonate (NaHCO3) (Merck, #1.06329.0500)). Plates were incubated overnight at 4° C.
(§2) Wells were then washed with an automated plate washer (300 μl 1×PBS, 3 times). The wells were blocked with 200 μl of blocking buffer (3% BSA/1×PBS (BSA: (Sigma, #1001647742)) for 1 hour at room temperature followed by washing as above.
(§3) 50 μl of undiluted hybridoma cell culture supernatant was added into appropriate wells and incubated at room temperature for 1 hour followed by washing as above. […] Wells were washed as above. A set of substrate tablets (1×silver, 1×gold) into 20 ml of ddH20 by shaking vigorously on the thermomixer for 6 mins at room temperature. 50 μl of substrate ([…]™ p-Nitrophenyl phosphate Tablets (Sigma-Aldrich, N2770-50SET)) was added into each well and incubated for 20-25 mins at room temperature. 50 μl of STOP solution (2M Sodium Hydroxide, Solid (NaOH) (Merck, Cas #1310-73-2)) was added into each well to stop the reaction. Absorbance was read at 405 nm immediately after adding STOP solution with the ELISA reader, using the ‘RdrOle4’ software.

[2] = system: PAR4-120Ala and PAR4-120Thr variants; assay: PAR4 thrombin cleavage assay on PAR4 variants in HEK293T cells; assay type: cell-based, human; conditions: for inhibition of thrombin cleavage of Ala120 and Thr120 PAR4 variants: pre-incubation 1, 10 or 100 μg/ml before thrombin
Description: 1×10^6 HEK293T cells (in Dulbecco's modified eagle's medium+10% foetal calf serum) were seeded onto 12-well plates 24 hours before transfection. When confluent, they were transiently transfected with 1 μg of DNA from one of the PAR4 variants (expression vectors pBJ-FLAG-PAR4-120A-296F or pBJ-FLAG-PAR4-120T-296F; Edelstein et al (2014) Blood 124(23):3450-8) plus 4 μL of Lipofectamine 2000, as per manufacturer's instructions. Forty-eight hours after transfection, cells were harvested and washed twice with PBS, then resuspended to a count of 1×10^6/mL. Cells (50 μL assays/0.5×10^5 cells per condition) were then pre-treated with either 1, 10 or 100 μg/mL of 5RC3 or sub-clone 5A.RC3.F10b.H4b or 100 μg/mL matched Isotype control (mouse IgG1) for 15 minutes at 37° C. Cells were then stimulated with 2 U/mL of thrombin for 10 minutes. The reaction was stopped by the addition of 4 U/mL hirudin. Cells were then washed once and resuspended with PBS containing a 1:200 dilution of FITC anti-FLAG antibody (Sigma, clone M2) and incubated for 1 hour at room temperature in the dark. Cells were then fixed with 1% paraformaldehyde (final concentration) and read on a FACSCalibur flow cytometer to determine % of FL1/FITC-Positive events. Data were normalised against the resting sample (100%, no thrombin treatment).
In order to determine whether the anti-PAR4 clones could inhibit the effects of thrombin on PAR4 cleavage, in vitro inhibition assays were performed. HEK293T cells were transiently transfected with the PAR4-120Ala (A) or PAR4-120Thr (T) variants which contained a FLAG epitope upstream of the thrombin cleavage site. Cleavage of PAR4 by thrombin was measured by loss of Flag tag from the PAR4 expressing HEK293 cells using flow cytometry.
Cells were stimulated with increasing doses of thrombin (0.1-2 U/ml) and the amount of thrombin cleavage was measured as a loss of FLAG epitope using a FITC-conjugated anti-FLAG antibody by flow cytometry.

[3] = system: PAR4 peptide vs PAR1, PAR2 and PAR3 peptides; assay: ELISA specificity screening, PAR4 peptide vs PAR1, 2 or 3 peptide; assay type: binding, human; conditions: hybridoma supernatant
Description: as §1, §2
as §3, with “50 μl of STOP solution (2M Sodium Hydroxide, Solid (NaOH) (Merck, Cas #1310-73-2)) was added into each well to stop the reaction.” left out
Hybridoma supernatants were initially screened for binding to the immunising PAR4 peptide sequence ([…]-KLH (SEQ ID NO: 4)) by antigen microarray, with binding determined by fluorescence intensity signal over background (signal from medium alone). […]

T2 sequence (Q96RI0 35-54 limits assumed): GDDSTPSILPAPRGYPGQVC

B1: 5A.RC3: anti-PAR4 monoclonal antibody, IgG2a/K, VH SEQ ID NO:11 and VL SEQ ID NO:12 (antibody, V domains shown)
VH: QVQLVESGGGVVQPGRSLRLSCAASGFTLSNYGMHWVRQAPGKGLEWVSVIWYDGSNKHYADSVKGRFTISRDNSKNTLYLQMNSLRAEDTAVYYCARESIVEVLPPFDYWGQGTLVTVSS
VL: KIVLTQSPGTLSLSPGERVTLSCRASQRVRNNYLAWFQQKPGQAPRLFIYGASSRATGIPDRFSGSGSGTDFIFTISRLEPEDFAVYYCQQYGNSYTFGQGTKLEIK
modifications: VH of 5A.RC3; VL of 5A.RC3
reactivity with hPAR4 peptide by ELISA (hPAR4 peptide): very similar binding curves | hPAR4 peptide the mAb reacted with [1]: amino acid residues 8-15 | inhibition of thrombin-induced phosphatidylserine exposure (human isolated platelets): dose-dependently inhibited thrombin-induced phosphatidylserine exposure; also recorded: inhibited thrombin-induced phosphatidylserine exposure in a dose dependent manner | Fold binding native vs KLH-linked PAR4 peptide (native PAR4 peptide): 19.3 | reversal of inhibition by the immunising peptide [2]: reversed | inhibition of thrombin cleavage of Ala120 and Thr120 PAR4 variants [2]: near complete inhibition of thrombin cleavage; also recorded: significantly inhibited thrombin induced PAR4 cleavage | inhibition of thrombin cleavage of Ala120 and Thr120 PAR4 variants ([2]; listed as 5A.RC3.H4b): effectively inhibited cleavage of PAR4 expressed on the surface of HEK293 cells in a dose dependent manner | selectivity to human PAR4 peptide over PAR1, PAR2 and PAR3 [3]: 16 fold
